Source: publication PMC7266990

Experiments:
Conditions in all cases: SPR per cited protocol (Gsaller 2016; buffer not given), CBC 3.13-200 nM, 1:1 model with mass transport; SEC: 20 mM Tris/HCl, 150 mM NaCl, 1 mM DTT, pH 7.5
[1] = target: Afu_CBC HapE P88L (SPR co-injection construct);HapX bZIP peptide P88L (Aspergillus fumigatus;Aspergillus fumigatus) (UniProt Q4WDM9+Q4WER3); experiment: SPR co-injection
[2] = target: Afu_CBC HapE P88L (core) P88L (Aspergillus fumigatus) (UniProt Q4WDM9); experiment: SPR
[3] = target: An_CBC HapE P88L (Aspergillus nidulans) (UniProt G5EAZ0+Q5B5Z6+Q5AYY8); experiment: SPR
[4] = target: An_CBC wt (HapB/HapC/HapE core) (Aspergillus nidulans) (UniProt G5EAZ0+Q5B5Z6+Q5AYY8); experiment: SPR

Sequence	binding signal (fold half-life vs binary P88L CBC-DNA) [1]	Kd [2] [nM]	Kd [3] [nM]	Kd [4] [nM]
AAATCCACCAATCAACGCCTCCGTGATTGTCAGCAAT (double strand) [Afu_cccA SPR co-injection duplex (CBC and HapX sites)]	7	–	–	–
GAATTGACCAATCAGAGGTAGGATG (double strand) [An_cycA 25 bp SPR duplex]	–	100	116	0.83
ACCCGAGCCAATCAGAGCGAAGTGA (double strand) [An_cccA 25 bp SPR duplex]	–	2000	2000	–
AAATCCACCAATCAACGCCTCCGTG (double strand) [Afu_cccA 25 bp SPR duplex]	–	429	–	–
